Test results published in patent US8642284B1, “Methods for identifying agents that alter NAD-dependent deacetylation activity of a SIR2 protein” (Massachusetts Institute of Technology, priority 1999, dated 2014).

B1: F265A: recombinant mSir2α core domain mutant, residue changed to alanine (protein)
chain: MADEVALALQAAGSPSAAAAMEAASQPADEPLRKRPRRDGPGLGRSPGEPSAAVAPAAAGCEAASAAAPAALWREAAGAAASAEREAPATAVAGDGDNGSGLRREPRAADDFDDDEGEEEDEAAAAAAAAAIGYRDNLLLTDGLLTNGFHSCESDDDDRTSHASSSDWTPRPRIGPYTFVQQHLMIGTDPRTILKDLLPETIPPPELDDMTLWQIVINILSEPPKRKKRKDINTIEDAVKLLQECKKIIVLTGAGVSVSCGIPDARSRDGIYARLAVDFPDLPDPQAMFDIEYFRKDPRPFFKFAKEIYPGQFQPSLCHKFIALSDKEGKLLRNYTQNIDTLEQVAGIQRILQCHGSFATASCLICKYKVDCEAVRGDIFNQVVPRCPRCPADEPLAIMKPEIVFFGENLPEQFHRAMKYDKDEVDLLIVIGSSLKVRPVALIPSSIPHEVPQILINREPLPHLHFDVELLGDCDVIINELCHRLGGEYAKLCCNPVKLSEITEKPPRPQKELVHLSELPPTPLHISEDSSSPERTVPQDSSVIATLVDQATNNNVNDLEVSESSCVEEKPQEVQTSRNVENINVENPDFKAVGSSTADKNERTSVAETVRKCWPNRLAKEQISKRLEGNQYLFVPPNRYIFHGAEVYSDSEDDVLSSSSCGSNSDSGTCQSPSLEEPLEDESEIEEFYNGLEDDTERPECAGGSGFGADGGDQEVVNEAIATRQELTDVNYPSDKS
modifications: left off: small tags and cut ends
notes: recombinant mSir2α core domain mutant, residue changed to alanine
B2: R266A: recombinant mSir2α core domain mutant, residue changed to alanine (protein)
chain: MADEVALALQAAGSPSAAAAMEAASQPADEPLRKRPRRDGPGLGRSPGEPSAAVAPAAAGCEAASAAAPAALWREAAGAAASAEREAPATAVAGDGDNGSGLRREPRAADDFDDDEGEEEDEAAAAAAAAAIGYRDNLLLTDGLLTNGFHSCESDDDDRTSHASSSDWTPRPRIGPYTFVQQHLMIGTDPRTILKDLLPETIPPPELDDMTLWQIVINILSEPPKRKKRKDINTIEDAVKLLQECKKIIVLTGAGVSVSCGIPDFASRDGIYARLAVDFPDLPDPQAMFDIEYFRKDPRPFFKFAKEIYPGQFQPSLCHKFIALSDKEGKLLRNYTQNIDTLEQVAGIQRILQCHGSFATASCLICKYKVDCEAVRGDIFNQVVPRCPRCPADEPLAIMKPEIVFFGENLPEQFHRAMKYDKDEVDLLIVIGSSLKVRPVALIPSSIPHEVPQILINREPLPHLHFDVELLGDCDVIINELCHRLGGEYAKLCCNPVKLSEITEKPPRPQKELVHLSELPPTPLHISEDSSSPERTVPQDSSVIATLVDQATNNNVNDLEVSESSCVEEKPQEVQTSRNVENINVENPDFKAVGSSTADKNERTSVAETVRKCWPNRLAKEQISKRLEGNQYLFVPPNRYIFHGAEVYSDSEDDVLSSSSCGSNSDSGTCQSPSLEEPLEDESEIEEFYNGLEDDTERPECAGGSGFGADGGDQEVVNEAIATRQELTDVNYPSDKS
modifications: left off: small tags and cut ends
notes: as for B1
B3: T336A: recombinant mSir2α core domain mutant, residue changed to alanine (protein)
chain: MADEVALALQAAGSPSAAAAMEAASQPADEPLRKRPRRDGPGLGRSPGEPSAAVAPAAAGCEAASAAAPAALWREAAGAAASAEREAPATAVAGDGDNGSGLRREPRAADDFDDDEGEEEDEAAAAAAAAAIGYRDNLLLTDGLLTNGFHSCESDDDDRTSHASSSDWTPRPRIGPYTFVQQHLMIGTDPRTILKDLLPETIPPPELDDMTLWQIVINILSEPPKRKKRKDINTIEDAVKLLQECKKIIVLTGAGVSVSCGIPDFRSRDGIYARLAVDFPDLPDPQAMFDIEYFRKDPRPFFKFAKEIYPGQFQPSLCHKFIALSDKEGKLLRNYAQNIDTLEQVAGIQRILQCHGSFATASCLICKYKVDCEAVRGDIFNQVVPRCPRCPADEPLAIMKPEIVFFGENLPEQFHRAMKYDKDEVDLLIVIGSSLKVRPVALIPSSIPHEVPQILINREPLPHLHFDVELLGDCDVIINELCHRLGGEYAKLCCNPVKLSEITEKPPRPQKELVHLSELPPTPLHISEDSSSPERTVPQDSSVIATLVDQATNNNVNDLEVSESSCVEEKPQEVQTSRNVENINVENPDFKAVGSSTADKNERTSVAETVRKCWPNRLAKEQISKRLEGNQYLFVPPNRYIFHGAEVYSDSEDDVLSSSSCGSNSDSGTCQSPSLEEPLEDESEIEEFYNGLEDDTERPECAGGSGFGADGGDQEVVNEAIATRQELTDVNYPSDKS
modifications: left off: small tags and cut ends
notes: as for B1
B4: G270A: recombinant mSir2α core domain mutant, residue changed to alanine (protein)
chain: MADEVALALQAAGSPSAAAAMEAASQPADEPLRKRPRRDGPGLGRSPGEPSAAVAPAAAGCEAASAAAPAALWREAAGAAASAEREAPATAVAGDGDNGSGLRREPRAADDFDDDEGEEEDEAAAAAAAAAIGYRDNLLLTDGLLTNGFHSCESDDDDRTSHASSSDWTPRPRIGPYTFVQQHLMIGTDPRTILKDLLPETIPPPELDDMTLWQIVINILSEPPKRKKRKDINTIEDAVKLLQECKKIIVLTGAGVSVSCGIPDFRSRDAIYARLAVDFPDLPDPQAMFDIEYFRKDPRPFFKFAKEIYPGQFQPSLCHKFIALSDKEGKLLRNYTQNIDTLEQVAGIQRILQCHGSFATASCLICKYKVDCEAVRGDIFNQVVPRCPRCPADEPLAIMKPEIVFFGENLPEQFHRAMKYDKDEVDLLIVIGSSLKVRPVALIPSSIPHEVPQILINREPLPHLHFDVELLGDCDVIINELCHRLGGEYAKLCCNPVKLSEITEKPPRPQKELVHLSELPPTPLHISEDSSSPERTVPQDSSVIATLVDQATNNNVNDLEVSESSCVEEKPQEVQTSRNVENINVENPDFKAVGSSTADKNERTSVAETVRKCWPNRLAKEQISKRLEGNQYLFVPPNRYIFHGAEVYSDSEDDVLSSSSCGSNSDSGTCQSPSLEEPLEDESEIEEFYNGLEDDTERPECAGGSGFGADGGDQEVVNEAIATRQELTDVNYPSDKS
modifications: left off: small tags and cut ends
notes: as for B1
B5: H355A: recombinant mSir2α core domain mutant, residue changed to alanine (protein)
chain: MADEVALALQAAGSPSAAAAMEAASQPADEPLRKRPRRDGPGLGRSPGEPSAAVAPAAAGCEAASAAAPAALWREAAGAAASAEREAPATAVAGDGDNGSGLRREPRAADDFDDDEGEEEDEAAAAAAAAAIGYRDNLLLTDGLLTNGFHSCESDDDDRTSHASSSDWTPRPRIGPYTFVQQHLMIGTDPRTILKDLLPETIPPPELDDMTLWQIVINILSEPPKRKKRKDINTIEDAVKLLQECKKIIVLTGAGVSVSCGIPDFRSRDGIYARLAVDFPDLPDPQAMFDIEYFRKDPRPFFKFAKEIYPGQFQPSLCHKFIALSDKEGKLLRNYTQNIDTLEQVAGIQRILQCAGSFATASCLICKYKVDCEAVRGDIFNQVVPRCPRCPADEPLAIMKPEIVFFGENLPEQFHRAMKYDKDEVDLLIVIGSSLKVRPVALIPSSIPHEVPQILINREPLPHLHFDVELLGDCDVIINELCHRLGGEYAKLCCNPVKLSEITEKPPRPQKELVHLSELPPTPLHISEDSSSPERTVPQDSSVIATLVDQATNNNVNDLEVSESSCVEEKPQEVQTSRNVENINVENPDFKAVGSSTADKNERTSVAETVRKCWPNRLAKEQISKRLEGNQYLFVPPNRYIFHGAEVYSDSEDDVLSSSSCGSNSDSGTCQSPSLEEPLEDESEIEEFYNGLEDDTERPECAGGSGFGADGGDQEVVNEAIATRQELTDVNYPSDKS
modifications: left off: small tags and cut ends
notes: as for B1

The molecules below were run on histone H2B (assay: ADP-ribosylation activity of wild type and mutant recombinant mSir2α proteins on histones). Conditions: 10 μg recombinant protein; H2B radioactivity, wild type = 100%.
Format: biochemical, calf
Experimental: Site-directed mutagenesis of mSIR2α core domain was performed with the GeneEditor™ system (Promega, Madison, Wis.) according to the procedure provided by the manufacturer. The mutant recombinant proteins were prepared in the same way as described above.
The typical reaction was performed in 50 or 100 μl of the buffer containing 5 mM Tris-HCl [pH8.0 or 9.0], 4 mM MgCl2, 0.2 mM DTT, 1 μM cold β-NAD^+ (SIGMA®) and 8 μCi nicotinamide adenine dinucleotide 5′[α-^32P]triphosphate (NAD) as a donor of ADP-ribose (˜1000 Ci/mmol, Amersham Pharmacia Biotech). To check the sensitivity to poly- or mono-ADP-ribosylation inhibitors, 3-aminobenzamide (ICN Pharmaceuticals, CA), benzamide, novobiocin and coumermycin A1 (SIGMA®) were added to the reactions prior to adding Sir2 proteins, respectively. The wild type or mutant recombinant proteins (0.5-1 μg for ySir2p and 10 μg of mSir2α) were added with 4 μg of each histone purchased from Roche Molecular Biochemicals (Indianapolis, Ind.). For the peptide experiments, 5-10 μg of unacetylated or acetylated N-terminal tail peptides (amino acids 1-20) of H3 and H4 purchased from Upstate Biotechnology™ (Lake Placid, N.Y.) were used as substrates of the yeast and mouse Sir2 recombinant proteins.
To analyze histone modification, 25 μl of 100% trichloroacetic acid (TCA) solution was mixed to the reaction mixture and left on ice for 15 min. The protein precipitates were centrifuged at 4° C. and washed with 5 or 20% TCA solution twice. The pellets were dissolved in 15 μl of Leammli's sample buffer and boiled for 1.5 min. The proteins were electrophoresed in a 10-20% gradient SDS-PAGE gel. The gel was stained with COOMASSIE® Brilliant Blue R-250 (GibcoBRL Life Technologies™, Frederick, Md.) to check equal loading of histones, dried, and exposed to KODAK® X-OMAT film.
Aliquots of recombinant protein (10 μg) of the wild type recombinant mSir2α (WT), the pET control pET, and the mutant proteins (G253A, G255A, S257A, I262A, F265A, R266A, G270A, P285A, T336A, H355A) were incubated with H2B or H3. […] All of the mutations of highly conserved residues dramatically affected the mono-ADP-ribosylation activity of mSir2α (FIG. 6B). The results were similar using H2B or H3.
The radioactivity of H2B modified by the wild type is assigned to 100% and other data were normalized according to the wild type activity and blots quantitated by Phosphorimaging. The averages and the standard deviations were calculated from two independent experiments. In the core domain of ySir2p, mutations on highly conserved residues also affected the mono-ADP-ribosylation activity. Therefore, the core domain of Sir2 proteins contain the catalytic activity of mono-ADP-ribosylation and the evolutionarily conserved residues in the core domain are essential for this activity.

Question: With B1 as the molecule, how does the “mono-ADP-ribosylation activity compared to the wild type activity” value read?
Answer: completely abolished the activity

Question: How did the “mono-ADP-ribosylation activity compared to the wild type activity” value turn out when B2 was run?
Answer: 18%

Question: Which “mono-ADP-ribosylation activity compared to the wild type activity” value does the source give for B3 here?
Answer: completely abolished the activity

Question: With B4 as the molecule, how does the “mono-ADP-ribosylation activity compared to the wild type activity” value read?
Answer: completely abolished the activity

Question: B5 was tested. Which “mono-ADP-ribosylation activity compared to the wild type activity” value did it give?
Answer: completely abolished the activity
